One test has as its target T1, TDP-219 peptide (human).
T1 construct: 8-mer of human TDP-43; same ELISA method as for the biotinylated 15-mers
T1 peptide: DVFIPKPF
Briefly: indirect ELISA, 8-mer peptide library. The procedure, abridged:
(§1)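 Hybridoma supernatant antibodies were tested by indirect ELISA on streptavidin-captured biotinylated 8-mer peptides with 7 aa overlap spanning human TDP-43 aa 210–231. Antibody binding was 2 h at 37 °C, then AP-conjugated anti-mouse IgG (1/1000, 1 h, 37 °C) was added. Read-out was pNPP absorbance at 405 nm.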

A further test addresses T2, TDP-218 peptide (human).
T2 construct: 8-mer of human TDP-43; same ELISA method as for the biotinylated 15-mers
T2 peptide: MDVFIPKP
Briefly: indirect ELISA, 8-mer peptide library. Summed up:
as §1

The target of a further test is T3, TDP-221 peptide (human).
T3 construct: 8-mer of human TDP-43; same ELISA method as for the biotinylated 15-mers
T3 peptide: FIPKPFRA
Briefly: indirect ELISA, 8-mer peptide library. The procedure, abridged: as §1

The target of the next test is T4, TDP-210 peptide (human).
T4 construct: 8-mer of human TDP-43; same ELISA method as for the biotinylated 15-mers
T4 peptide: FFSQYGDV
Briefly: indirect ELISA, 8-mer peptide library. The procedure, abridged: as §1

The target in the next test is T5, TDP-212 peptide (human).
T5 construct: 8-mer of human TDP-43; same ELISA method as for the biotinylated 15-mers
T5 peptide: SQYGDVMD
As to the kind of experiment: indirect ELISA, 8-mer peptide library. The procedure, abridged: as §1

The target of another test is T6, TDP-223 peptide (human).
T6 construct: 8-mer of human TDP-43; same ELISA method as for the biotinylated 15-mers
T6 peptide: PKPFRAFA
Briefly: indirect ELISA, 8-mer peptide library. Summed up: as §1

Another test addresses T7, TDP-224 peptide (human).
T7 construct: 8-mer of human TDP-43; same ELISA method as for the biotinylated 15-mers
T7 peptide: KPFRAFAF
As to the kind of experiment: indirect ELISA, 8-mer peptide library. The procedure, abridged:
as §1

A further test has as its target T8, TDP-214 peptide (human).
T8 construct: 8-mer of human TDP-43; same ELISA method as for the biotinylated 15-mers
T8 peptide: YGDVMDVF
As to the kind of experiment: indirect ELISA, 8-mer peptide library. The procedure, abridged: as §1

Test [1] concerns the target T9, recombinant human full-length TDP-43 (human, UniProt Q13148 1-414).
T9 construct: Recombinant full-length protein; also called FL TDP-43; recFL TDP-43
Briefly: SPR affinity (Biacore 8K), antibody captured on anti-mouse IgG, TDP-43 monomer as analyte, single cycle kinetics, 1:1 model. The procedure:
Binding affinity to FL TDP-43 was evaluated by determining the dissociation constant (KD) using surface plasmon resonance (SPR; Biacore 8K, GE Healthcare Life Sciences). Anti-mouse IgG was immobilized on a CM5 Series S sensor chip (GE Healthcare Life Sciences) by amine coupling. Immobilization of andi-IgG was done at a concentration of 30 μg/ml in 10 mM sodium acetate (pH 5.5) with a flow rate of 10 μl/min for 500 s. The purified antibodies being tested, and the control antibody (2E2-D3), were injected at a concentration of 1 μg/ml at a flow rate of 10 μl/min for 500 s in 10 mM Na-acetate (pH 5.5). To evaluate KDs, recombinant human FL TDP-43 monomer analyte was injected at […] starting from 400 nM and diluting down to 1.6 nM using single cycle kinetics. The protein analyte was injected at a flow rate of 20 μl/min for 600 s contact time and a 1200 s dissociation phase, without intermediate regeneration steps. Result obtained from kinetics was evaluated using a 1:1 binding model analysis.

The target of another test is T10, TP-24 peptide (human, also: biotinylated, site not given here).
T10 construct: 15-mer of human TDP-43 from the library spanning aa 199-285; captured on streptavidin plates
T10 peptide: REFFSQYGDVMDVFI
Briefly: indirect ELISA, biotinylated 15-mer peptide on streptavidin plate, hybridoma supernatant. On the procedure: (§2) Serum-free supernatants were harvested from stable hybridomas. The supernatants containing antibodies of interest were then screened by an indirect ELISA assay to determine epitopes. Epitopes were mapped using a library of TDP-43 15-mer peptides. Briefly, 96-well streptavidin-coated 96-well ELISA plates were incubated with 5 μg/mL of biotinylated 15-mer peptides spanning the amino acids (aa) 199-285 of human TDP-43 with 9 aa offset and 6 aa overlap. Plates were washed thoroughly with 0.05% Tween-20/PBS and then blocked with 1% bovine serum albumin (BSA) in 0.05% Tween-20/PBS for 1 hour at 37° C. The antibody contained in the hybridoma supernatant was then added at the indicated dilutions, and incubated for 2 hours at 37° C. after which the plates were washed as described previously. An AP-conjugated anti-mouse IgG secondary antibody (Jackson ImmunoResearch Laboratories, United Kingdom) was added at 1/1000 dilution in 0.05% Tween-20/PBS for 1 hour at 37° C. After the final wash, plates were incubated with pNPP (Sigma-Aldrich, Switzerland) an AP substrate solution, and read at 405 nm using an ELISA plate reader (Tecan).

A further test addresses T11, TP-25 peptide (human, also: biotinylated, site not given here).
T11 construct: 15-mer of human TDP-43 from the library spanning aa 199-285; captured on streptavidin plates
T11 peptide: VMDVFIPKPFRAFAF
The description is as above. The procedure: as §2

Where a chain is given by its changes, count along the chain named. Where no end group is shown, it is not given here.

T9 sequence (Q13148 whole entry): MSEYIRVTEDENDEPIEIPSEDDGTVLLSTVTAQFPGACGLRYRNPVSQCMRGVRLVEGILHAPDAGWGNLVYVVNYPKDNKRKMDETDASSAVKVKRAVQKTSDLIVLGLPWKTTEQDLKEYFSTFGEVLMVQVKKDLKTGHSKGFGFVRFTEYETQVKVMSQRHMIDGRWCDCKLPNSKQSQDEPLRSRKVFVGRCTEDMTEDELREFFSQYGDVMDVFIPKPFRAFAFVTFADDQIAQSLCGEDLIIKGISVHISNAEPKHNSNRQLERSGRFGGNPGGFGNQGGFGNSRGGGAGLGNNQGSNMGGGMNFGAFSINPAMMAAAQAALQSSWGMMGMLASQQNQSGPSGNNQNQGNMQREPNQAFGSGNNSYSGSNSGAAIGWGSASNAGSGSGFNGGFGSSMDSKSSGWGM

B1: ACI-7062-406E3-Ab1 (antibody, IgG2a, V domains shown)
VH: QVTLKESGPAILQPSQTLSLTCSFSGFSLTTYGIGVGWIRQPSGKGLEWLAHIWWNDNKYYNTALKSRLTVSKDTSNNQVFLKIASVDTADTATYYCARVYGNLYYFAYWGQGTTLTVSS
VL: DVLMTQTPLSLPVSLGDRASISCRSSQSIVHRSGNTYLEWYLQKPGQSPKLLIYKVSNRFSGVPDRFSGSGSGTDFTLKISRVEAEDLGVYYCFQGSHVPTFGAGTKLELKR
notes: also called 406E3D5; clone 5
As to B1, the binding result with TDP-219 peptide, with TDP-218 peptide, with TDP-221 peptide, with TDP-210 peptide, with TDP-212 peptide and with TDP-223 peptide was “no binding” throughout. For the same molecule, the binding result in the test with TDP-224 peptide and with TDP-214 peptide was “no binding” throughout. Moreover, in test [1], the Kd turned out to be 193 nM. Also, the OD is 3 O.D. (405 nm) in the test with TP-24 peptide and 1 O.D. (405 nm) in the test with TP-25 peptide.

B2: ACI-7062-406E3-Ab2 (antibody, IgG2a, V domains shown)
VH: B1 VH
VL: B1 VL
notes: also called 406E3G10; clone 6
In the case of B2, the binding result in the test with TDP-219 peptide, with TDP-218 peptide, with TDP-221 peptide, in the test with TDP-210 peptide, with TDP-212 peptide and with TDP-223 peptide was “no binding” each time. Moreover, the binding result with TDP-224 peptide and with TDP-214 peptide was “no binding” in each case. Moreover, the Kd in test [1] worked out at 101 nM. Moreover, the OD with TP-24 peptide is 3.4 O.D. (405 nm); with TP-25 peptide, 0.9 O.D. (405 nm).

B3: ACI-7062-416A11-Ab1 (antibody, IgG2a, V domains shown)
VH: B1 VH with A10G, P14S, T30S, V71I, T92A, A108G
VL: B1 VL with R32S, H98R
notes: also called 416A11B3; clone 18
For the molecule B3, the binding result in the test with TDP-219 peptide, with TDP-218 peptide, in the test with TDP-221 peptide, in the test with TDP-210 peptide, with TDP-212 peptide and with TDP-223 peptide was “no binding” each time. The binding result with TDP-224 peptide and with TDP-214 peptide was “no binding” in each case. For the same molecule, the Kd in [1] worked out at 307 nM. Moreover, the figures for the OD with TP-24 peptide and in the test with TP-25 peptide were 2.9 O.D. (405 nm) and 0.9 O.D. (405 nm), respectively.

B4: ACI-7062-410H3-Ab1 (antibody, IgG1, V domains shown)
VH: DVQLVESGGGLVQPGGSRRLSCAASGFTFSSFGMHWVRQAPEKGLEWVAYIRSGSDIIYYADSVKGRFTISRDNPENTLFLQMTSLRSEDTAMYYCARSGTTVPFDYWGQGTSLTVSS
VL: DIVMTQSPSSLAMSVGQKVTMSCKSSQSLLNSGNQKNYLAWYQQKPGQSPELLLYFASTRASGVPDRFIGSGSGTDFTLTISSVQAEDLADYFCQQHYSIPLTFGAGTKLELKR
notes: also called 410H3B9; clone 7
As to B4, the binding result with TDP-219 peptide, in the test with TDP-218 peptide, with TDP-221 peptide, with TDP-210 peptide, with TDP-212 peptide and in the test with TDP-223 peptide was “no binding” throughout. The binding result with TDP-224 peptide and in the test with TDP-214 peptide was “no binding” throughout. In addition, the Kd in test [1] turned out to be 242 nM. Also, the OD was 3.8 O.D. (405 nm) with TP-24 peptide and 0.8 O.D. (405 nm) with TP-25 peptide.

B5: ACI-7062-412A7-Ab1 (antibody, IgG2b, V domains shown)
VH: B4 VH
VL: B4 VL
notes: also called 412A7B7; clone 9
Turning to B5, the binding result in the test with TDP-219 peptide, with TDP-218 peptide, in the test with TDP-221 peptide, with TDP-210 peptide, with TDP-212 peptide and in the test with TDP-223 peptide was “no binding” each time. Further, the binding result in the test with TDP-224 peptide and with TDP-214 peptide was “no binding” throughout. The Kd in test [1] was found to be 66.1 nM. The OD with TP-24 peptide was 4 O.D. (405 nm); with TP-25 peptide it was 1.4 O.D. (405 nm).

For the origin of these results see patent US20220025023A1 (AC IMMUNE, published 2022).
